The source of these data is patent US10059956B2, “Glycosyltransferase gene and use thereof” (SUNTORY HOLDINGS LIMITED, priority 2012, dated 2018).

Assay [1] concerns rose (Noblesse, Ritapa Humera). The assay can be described thus: Flower petal pigment analysis of recombinant rose introduced with NmGT8. Format: in vivo. The text has this:
Binary vectors pSPB4577, pSBP4578, pSBP5437 and pSBP5440 for expressing NmGT8 were constructed and introduced into rose (Noblesse, Ritapa Humera). […] Details of the introduced constructs are described below (see FIG. 21).
pBINPLUS was used for the basic skeleton of pSPB5477, and three expression cassettes were contained therein (consisting of 1: EI235S promoter, full-length cDNA pansy F3′5′H and mas terminator; 2: EI235S promoter, full-length cDNA torenia flavone synthase and mas terminator; and, 3: EI235S promoter, full-length cDNA NmGT8 and mas terminator).
pBINPLUS was used for the basic skeleton of pSPB4578, and three expression cassettes were contained therein (consisting of 1: perilla anthocyanin 3-acyltransferase promoter (described in PCT/JP2010/053909), full-length cDNA pansy F3′5′H and mas terminator; 2: EI235S promoter, full-length cDNA torenia flavone synthase and mas terminator; and, 3: EI235S promoter, full-length cDNA NmGT8 and mas terminator). […]
Pigments in the flower petals were analyzed for full-length cDNA torenia flavone synthase and full-length cDNA NmGT8 in those strains in which transcription products were confirmed. […] The flower petal extract was analyzed by high-performance liquid chromatography (Prominence (Shimadzu Corp.)). […] Non-recombinant rose not introduced with the genes was analyzed in the same manner as a control (FIG. 22). Flower petal extract diluted 50-fold was also analyzed with a high-performance liquid chromatograph (Shimadzu Corp.). The Shimadzu LCMS-IF-TOF was used for the detector and flavones were detected at […] ([Api-Glc+H]) and […] ([Lut-Glc+H]). […]

For assay [2], the system named is NmGT8 protein. The assay can be described thus: Enzyme reaction of flavone substrates with His-tag purified NmGT8 protein solution and UDP-glucose (HPLC). In kind it is biochemical, Nemophila menziesii. To be noted: reactivity to various flavonoid compounds of FIG. 11 and betanidine. How it is done: The transformed E. coli were cultured at 37° C. to an OD600 value of 0.5 in 8 ml of the prepared culture liquid (approx. 4 hours). This E. coli culture liquid was then used as a pre-culture liquid and added to 200 ml of culture liquid followed by final culturing overnight at 25° C.
Following final culturing overnight, the E. coli culture liquid was centrifuged (1000×g, 4° C., 10 minutes), the collected cells were suspended in 20 ml of extract (composition: buffer (KCl: 300 mM, KH2PO4: 50 mM, imidazole: 5 mm) (pH 8.0), amidinophenylmethanesulfonyl fluoride hydrochloride (APMSF): 10 μM), and after crushing the E. coli by ultrasonic treatment, the crushed cells were centrifuged (1400×g, 4° C., 20 minutes) followed by recovery of the supernatant. This supernatant was passed through a 0.45 μm filter and purified by His-Tag protein purification using Profinia (Bio-Rad Laboratories, Inc.) in accordance with the protocol recommended by the manufacturer. The resulting purified protein solution was centrifuged (7500×g, 4° C., 15 minutes) using centrifugal filters (Ultracel-10K, Amicon Corp.) and the concentrated protein solution was designated as “NmGT8 Protein Solution”. The Avanti HP-26XP (rotor: JA-2) (Beckman Coulter Inc.) was used for centrifugation.
A reaction liquid prepared by mixing 10 μl of protein solution, 2 μl of 50 mM UDP-glucose, 10 μl of 1 M Tris HCl (pH 7.5) and 5 μl of 1 mM apigenin on ice and bringing to a volume of 100 μl with water was held for 20 minutes at 30° C. Subsequently, 100 μl of stop buffer (90% aqueous acetonitrile solution containing 0.1% TFA) were added to stop the reaction followed by analyzing the reaction liquid by high-performance liquid chromatography (Prominence (Shimadzu Corp.)). The Shimadzu PDA SPD-M10AVP was used for the detector and flavone was detected at 330 nm. The Shim-Pack ODS 150 mm×4.6 mm column (Shimadzu Corp.) was used for the column. A Solution A (0.1% aqueous TFA solution) and a Solution B (90% aqueous methanol solution containing 0.1% TFA) were used for elution. Elution was carried out using a linear concentration gradient from an 8:2 mixture of the two solutions to a 3:7 mixture of the two solutions over the course of 10 minutes followed by a 3:7 mixture for 6 minutes. The flow rate was 0.6 ml/min.

The mark [3] stands for this setting: recombinant rose flower petal extract, LC-MS.

B1: NmGT8: nemophila glycosyltransferase (SEQ ID NO: 1/2) having activity that transfers a sugar to the hydroxyl group at the 4′-position of a flavone (protein, listed as Nemophila menziesii)
chain: MEKKTIILYPSPGIGHLVSMVELAKLILNREPSYSIIIFISSAPYSTGSSAPYISHVSATTSGISFHHLPVLVLPPNTFSSFEEIAYKIPQLNNPNLKLALQTISKESSDLKAFIIDFFCTAAVEVSSNLEIPTYFFFTSGSSAMCQFLYLPTLHETITQKDLQDPNTYVHIPGIPPIHSLDLPKVLSNRSTVLYKELINTANQMAKCSGILINAFETLEPKAVKALKEGLCTPGMPTPPVYCIGPLIASGDKGNVNDAHGHEILTWLNSQPSKSVVFLCFGSLGTFKEDQLKEIAIGLENSGHRFLWVMKSPPIDDKTKRFLPPPEPDFNVLLPEGFLERTKERGVIVKSWAPQLAILNHDAIGGFVTHCGWNSVLEAICGGVPMLAWPLYAEQRVNRVCMVEEMKVALPLEESVDGFVMASEIEKRVKELVDYESSEAIRDQVKIMSEKAKTAVAVSGSSHDALTKLLDGWK
B1: in assay [1] (setting [3]), the “flavone 4′-glucoside share of the biosynthesized flavones” value is listed as 97.0% and the “flavone 7-glucoside share of the biosynthesized flavones” value was 3.0%. Besides, the “flavones detected in flower petals” value in assay [1] (recombinant rose introduced with flavone synthase and NmGT8, HPLC) is “apigenin 4′-glucoside and luteolin 4′-glucoside were detected”. For the same molecule, the substrate specificity entry in assay [2] is “high substrate specificity and selectively glycosylate the 4′-position of flavones”.
